Reference: patent publication US20140010797, “Fusion Molecules of Rationally-Designed DNA-Binding Proteins and Effector Domains” (DUKE UNIVERSITY, published 2014)

Target: T1, CCR2REP (Artificial Sequence, UniProt P05725 SEQ:11-173)
T1 chain: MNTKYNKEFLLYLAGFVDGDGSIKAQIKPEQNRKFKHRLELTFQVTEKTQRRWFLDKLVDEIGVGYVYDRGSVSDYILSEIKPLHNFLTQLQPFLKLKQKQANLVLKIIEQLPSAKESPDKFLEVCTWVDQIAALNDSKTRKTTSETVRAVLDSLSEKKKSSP
Assay: cell_activity; LacZ reporter with truncated CMV promoter, HEK 293
Details: tags: N-terminal SV40 NLS, C-terminal Kid-1 KRAB; chain copies: 2
Description: An E. coli beta-galactosidase (LacZ) gene was inserted into the mammalian expression vector pCI (Promega) between PstI and NotI. In this plasmid, LacZ expression is driven by a truncated CMV promoter (corresponding to the 3′ 442 bp of the canonical CMV promoter, SEQ ID NO: 47). A CCR2 recognition sequence (SEQ ID NO: 45) was then inserted at the 5′ end of this promoter (see FIG. 6A).
HEK 293 cells (1×10⁵) were transfected first with either the pCI empty vector or pCI carrying the CCR2REP gene under the control of a constitutive CMV promoter using Lipofectamine 2000 according to the manufacturer's instructions (Invitrogen). 6 hours post-transfection, transfection complexes were removed and replaced with fresh media. 24 hours post-transfection, the cells were re-transfected with the LacZ reporter plasmid using Lipofectamine 2000. As a measure of transfection efficiency, additional cells were transfected at both time points with pCI eGFP. […]
Lysates from transfected cells were subjected to a standard o-nitrophenyl-β-D-galactoside (ONPG) assay (Current Protocols in Molecular Biology. ed. V. B. Chanda. Vol. 2. 2004, John Wiley & Sons, Inc). […] The reaction was stopped with 500 μL 1M Na₂CO₃ after one hour, and the absorbance at 420 nm was measured using a NanoDrop ND-1000 spectrophotometer. β-galactosidase activity was determined using standard equations.

B1: CCR2 palindrome (dsDNA)
DNA 1: AGGCATCTCGTACGAGATGCCT
DNA 2: AGGCATCTCGTACGAGATGCCT
activity: ~2.6 fold repression
